Data as given in US7001748.

T1: acyl-ACP4(4) adduct 4a ((2S,3R)-diketide on ACP4(4)), Q03132
T1 chain: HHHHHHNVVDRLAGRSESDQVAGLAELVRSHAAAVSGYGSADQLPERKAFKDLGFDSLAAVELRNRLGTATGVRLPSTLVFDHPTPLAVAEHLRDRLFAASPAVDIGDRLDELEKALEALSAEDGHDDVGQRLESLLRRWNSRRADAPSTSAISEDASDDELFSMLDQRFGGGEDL

T2: acyl-ACP4(4) adduct 4b ((2R,3S)-diketide on ACP4(4)), Q03132
T2 chain: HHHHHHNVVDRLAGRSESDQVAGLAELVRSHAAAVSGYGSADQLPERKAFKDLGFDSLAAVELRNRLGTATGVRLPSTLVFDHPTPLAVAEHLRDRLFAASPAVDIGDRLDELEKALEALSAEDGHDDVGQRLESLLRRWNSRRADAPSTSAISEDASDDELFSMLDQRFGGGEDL

T3: acyl-ACP4(4) adduct 4c ((2S,3S)-diketide on ACP4(4)), Q03132
T3 chain: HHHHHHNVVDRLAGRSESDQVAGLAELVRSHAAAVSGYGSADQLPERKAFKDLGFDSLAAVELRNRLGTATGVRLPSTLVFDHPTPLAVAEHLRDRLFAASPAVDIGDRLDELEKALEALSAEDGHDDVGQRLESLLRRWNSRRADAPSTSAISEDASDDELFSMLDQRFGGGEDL

T4: acyl-ACP4(4) adduct 4d ((2R,3R)-diketide on ACP4(4)), Q03132
T4 chain: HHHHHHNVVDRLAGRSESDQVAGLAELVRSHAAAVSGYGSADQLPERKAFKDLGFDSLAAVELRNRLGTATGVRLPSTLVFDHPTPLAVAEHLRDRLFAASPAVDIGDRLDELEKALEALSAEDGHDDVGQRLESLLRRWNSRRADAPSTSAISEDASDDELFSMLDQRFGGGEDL


Assays:
[1] = target: T1, acyl-ACP4(4) adduct 4a …
[2] = target: T2, acyl-ACP4(4) adduct 4b …
[3] = target: T3, acyl-ACP4(4) adduct 4c …
[4] = target: T4, acyl-ACP4(4) adduct 4d …

| Protein | diketide incorporation from acyl-ACP (product formation) [1] | diketide incorporation from acyl-ACP (product formation) [2] | diketide incorporation from acyl-ACP (product formation) [3] | diketide incorporation from acyl-ACP (product formation) [4] | diketide incorporation from acyl-ACP (triketide lactone formation) [1] | diketide incorporation from acyl-ACP (triketide lactone formation) [2] | diketide incorporation from acyl-ACP (triketide lactone formation) [3] | diketide incorporation from acyl-ACP (triketide lactone formation) [4] |
| --- | --- | --- | --- | --- | --- | --- | --- | --- |
| M3+TE (module 3 of DEBS with its own N-terminal linker and with the thioesterase fused to the C-terminus; plasmid pRSG34) (protein) MTDSEKVAEYLRRATLDLRAARQRIRELESDIAIVSMACRLPGGVNTPQRLWELLREGGETLSGFPTDRGWDLARLHHPDPDNPGTSYVDKGGFLDDAAGFDAEFFGVSPREAAAMDPQQRLLLETSWELVENAGIDPHSLRGTATGVFLGVAKFGYGEDTAAAEDVEGYSVTGVAPAVASGRISYTMGLEGPSISVDTACSSSLVALHLAVESLRKGESSMAVVGGAAVMATPGVFVDFSRQRALAADGRSKAFGAGADGFGFSEGVTLVLLERLSEARRNGHEVLAVVRGSALNQDGASNGLSAPSGPAQRRVIRQALESCGLEPGDVDAVEAHGTGTALGDPIEANALLDTYGRDRDADRPLWLGSVKSNIGHTQAAAGVTGLLKVVLALRNGELPATLHVEEPTPHVDWSSGGVALLAGNQPWRRGERTRRARVSAFGISGTNAHVIVEEAPEREHRETTAHDGRPVPLVVSARTTAALRAQAAQIAELLERPDADLAGVGLGLATTRARHEHRAAVVASTREEAVRGLREIAAGAATADAVVEGVTEVDGRNVVFLFPGQGSQWAGMGAELLSSSPVFAGKIRACDESMAPMQDWKVSDVLRQAPGAPGLDRVDVVQPVLFAVMVSLAELWRSYGVEPAAVVGHSQGEIAAAHVAGALTLEDAAKLVVGRSRLMRSLSGEGGMAAVALGEAAVRERLRPWQDRLSVAAVNGPRSVVVSGEPGALRAFSEDCAAEGIRVRDIDVDYASHSPQIERVREELLETTGDIAPRPARVTFHSTVESRSMDGTELDARYWYRNLRETVRFADAVTRLAESGYDAFIEVSPHPVVVQAVEEAVEEADGAEDAVVVGSLHRDGGDLSAFLRSMATAHVSGVDIRWDVALPGAAPFALPTYPFQRKRYWLQPAAPAAASDELAYRVSWTPIEKPESGNLDGDWLVVTPLISPEWTEMLCEAINANGGRALRCEVDTSASRTEMAQAVAQAGTGFRGVLSLLSSDESACRPGVPAGAVGLLTLVQALGDAGVDAPVWCLTQGAVRTPADDDLARPAQTTAHGFAQVAGLELPGRWGGVVDLPESVDDAALRLLVAVLRGGGRAEDHLAVRDGRLHGRRVVRASLPQSGSRSWTPHGTVLVTGAASPVGDQLVRWLADRGAERLVLAGACPGDDLLAAVEEAGASAVVCAQDAAALREALGDEPVTALVHAGTLTNFGSISEVAPEEFAETIAAKTALLAVLDEVLGDRAVEREVYCSSVAGIWGGAGMAAYAAGSAYLDALAEHHRARGRSCTSVAWTPWALPGGAVDDGYLRERGLRSLSADRAMRTWERVLAAGPVSVAVADVDWPVLSEGFAATRPTALFAELAGRGGQAEAEPDSGPTGEPAQRLAGLSPDEQQENLLELVANAVAEVLGHESAAEINVRRAFSELGLDSLNAMALRKRLSASTGLRLPASLVFDHPTVTALAQHLRICCAGTAAISGPHEFTRLAGALRGIAPVRAVPQPGYEEGEPLPSSMAAVAAVQADAVIRTQGDKPFVVAGHSAGALMAYALATELLDRGHPPRGVVLIDVYPPGHQDAMNAWLEELTATLFDRETVRMDDTRLTALGAYDRLTGQWRPRETGLPTLLVSAGEPMGPWPDDSWKPTWPFEHDTVAVPGDHFTMVQEHADAIARHIDAWHHHHHH | no product formation was observed from the incubation of any of the acyl-ACP adducts with (3)M3+TE | no product formation was observed from the incubation of any of the acyl-ACP adducts with (3)M3+TE | no product formation was observed from the incubation of any of the acyl-ACP adducts with (3)M3+TE | no product formation was observed from the incubation of any of the acyl-ACP adducts with (3)M3+TE | – | – | – | – |
| (5)M2+TE (N-ERL-M2+TE; plasmid pRSG64) (protein) MSGDNGMTEEKLRRYLKRTVTELDSVTARLREVEHRAGEIAIVGMACRLPGEVDSPERLWELITSGRDSAAEVPDDRGWVPDELMASDAAGTRAHGNFMAGAGDFDAAFFGISPREALAMDPQQRQALETTWEALESAGIPPETLRGSDTGVFVGMSHQGYATGRPRPEDGVDGYLLTGNTASVASGRIAYVLGLEGPALTVDTACSSSLVALHTACGSLRDGDCGLAVAGGVSVMAGPEVFTEFSRQGALSPDGRCKPFSDEADGFGLGEGSAFVVLQRLSDARREGRRVLGVVAGSAVNQDGASNGLSAPSGVAQQRVIRRAWARAGITGADVAVVEAHGTGTRLGDPVEASALLATYGKSRGSSGPVLLGSVKSNIGHAQAAAGVAGVIKVLLGLERGVVPPMLCRGERSGLIDWSSGEIELADGVREWSPAADGVRRAGVSAFGVSGTNAHVIIAEPPEPEPVPQPRRMLPATGVVPVVLSARTGAALRAQAGRLADHLAAHPGIAPADVSWTMARARQHFEERAAVLAADTAEAVHRLRAVADGAVVPGVVTGSASDGGSVFVFPGQGAQWEGMARELLPVPVFAESIAECDAVLSEVAGFSVSEVLEPRPDAPSLERVDVVQPVLFAVMVSLARLWRACGAVPSAVIGHSQGEIAAAVVAGALSLEDGMRVVARRSRAVRAVAGRGSMLSVRGGRSDVEKLLADDSWTGRLEVAAVNGPDAVVVAGDAQAAREFLEYCEGVGIRARAIPVDYASHTAHVEPVRDELVQALAGITPRRAEVPFFSTLTGDFLDGTELDAGYWYRNLRHPVEFHSAVQALTDQGYATFIEVSPHPVLASSVQETLDDAESDAAVLGTLERDAGDADRFLTALADAHTRGVAVDWEAVLGRAGLVDLPGYPFQGKRFWLLPDRTTPRDELDGWFYRVDWTEVPRSEPAALRGRWLVVVPEGHEEDGWTVEVRSALAEAGAEPEVTRGVGGLVGDCAGVVSLLALEGDGAVQTLVLVRELDAEGIDAPLWTVTFGAVDAGSPVARPDQAKLWGLGQVASLERGPRWTGLVDLPHMPDPELRGRLTAVLAGSEDQVAVRADAVRARRLSPAHVTATSEYAVPGGTILVTGGTAGLGAEVARWLAGRGAEHLALVSRRGPDTEGVGDLTAELTRLGARVSVHACDVSSREPVRELVHGLIEQGDVVRGVVHAAGLPQQVAINDMDEAAFDEVVAAKAGGAVHLDELCSDAELFLLFSSGAGVWGSARQGAYAAGNAFLDAFARHRRGRGLPATSVAWGLWAAGGMTGDEEAVSFLRERGVRAMPVPRALAALDRVLASGETAVVVTDVDWPAFAESYTAARPRPLLDRIVTTAPSERAGEPETESLRDRLAGLPRAERTAELVRLVRTSTATVLGHDDPKAVRATTPFKELGFDSLAAVRLRNLLNAATGLRLPSTLVFDHPNASAVAGFLDICCAGTAAISGPHEFTRLAGALRGIAPVRAVPQPGYEEGEPLPSSMAAVAAVQADAVIRTQGDKPFVVAGHSAGALMAYALATELLDRGHPPRGVVLIDVYPPGHQDAMNAWLEELTATLFDRETVRMDDTRLTALGAYDRLTGQWRPRETGLPTLLVSAGEPMGPWPDDSWKPTWPFEHDTVAVPGDHFTMVQEHADAIARHIDAWHHHHHH | – | – | – | – | Both 4a and 4b were accepted and extended by all three modules | Both 4a and 4b were accepted and extended by all three modules | 4c and 4d were also substrates for the three modules | 4c and 4d were also substrates for the three modules |
| (5)M3+TE (derivative of M3+TE where the natural N-terminal linker has been replaced with the N-terminal linker of module 5 of DEBS; plasmid pST132) (protein) MSGDNGMTEEKLRRYLKRTVTELDSVTARLREVEHRAGEPIAIVSMACRLPGGVNTPQRLWELLREGGETLSGFPTDRGWDLARLHHPDPDNPGTSYVDKGGFLDDAAGFDAEFFGVSPREAAAMDPQQRLLLETSWELVENAGIDPHSLRGTATGVFLGVAKFGYGEDTAAAEDVEGYSVTGVAPAVASGRISYTMGLEGPSISVDTACSSSLVALHLAVESLRKGESSMAVVGGAAVMATPGVFVDFSRQRALAADGRSKAFGAGADGFGFSEGVTLVLLERLSEARRNGHEVLAVVRGSALNQDGASNGLSAPSGPAQRRVIRQALESCGLEPGDVDAVEAHGTGTALGDPIEANALLDTYGRDRDADRPLWLGSVKSNIGHTQAAAGVTGLLKVVLALRNGELPATLHVEEPTPHVDWSSGGVALLAGNQPWRRGERTRRARVSAFGISGTNAHVIVEEAPEREHRETTAHDGRPVPLVVSARTTAALRAQAAQIAELLERPDADLAGVGLGLATTRARHEHRAAVVASTREEAVRGLREIAAGAATADAVVEGVTEVDGRNVVFLFPGQGSQWAGMGAELLSSSPVFAGKIRACDESMAPMQDWKVSDVLRQAPGAPGLDRVDVVQPVLFAVMVSLAELWRSYGVEPAAVVGHSQGEIAAAHVAGALTLEDAAKLVVGRSRLMRSLSGEGGMAAVALGEAAVRERLRPWQDRLSVAAVNGPRSVVVSGEPGALRAFSEDCAAEGIRVRDIDVDYASHSPQIERVREELLETTGDIAPRPARVTFHSTVESRSMDGTELDARYWYRNLRETVRFADAVTRLAESGYDAFIEVSPHPVVVQAVEEAVEEADGAEDAVVVGSLHRDGGDLSAFLRSMATAHVSGVDIRWDVALPGAAPFALPTYPFQRKRYWLQPAAPAAASDELAYRVSWTPIEKPESGNLDGDWLVVTPLISPEWTEMLCEAINANGGRALRCEVDTSASRTEMAQAVAQAGTGFRGVLSLLSSDESACRPGVPAGAVGLLTLVQALGDAGVDAPVWCLTQGAVRTPADDDLARPAQTTAHGFAQVAGLELPGRWGGVVDLPESVDDAALRLLVAVLRGGGRAEDHLAVRDGRLHGRRVVRASLPQSGSRSWTPHGTVLVTGAASPVGDQLVRWLADRGAERLVLAGACPGDDLLAAVEEAGASAVVCAQDAAALREALGDEPVTALVHAGTLTNFGSISEVAPEEFAETIAAKTALLAVLDEVLGDRAVEREVYCSSVAGIWGGAGMAAYAAGSAYLDALAEHHRARGRSCTSVAWTPWALPGGAVDDGYLRERGLRSLSADRAMRTWERVLAAGPVSVAVADVDWPVLSEGFAATRPTALFAELAGRGGQAEAEPDSGPTGEPAQRLAGLSPDEQQENLLELVANAVAEVLGHESAAEINVRRAFSELGLDSLNAMALRKRLSASTGLRLPASLVFDHPTVTALAQHLRARLDSGTPAREASSALRDGYRQAGVSGRVRSYLDLLAGLSDFREHFDGSDGFSLDLVDMADGPGEVTVICCAGTAAISGPHEFTRLAGALRGIAPVRAVPQPGYEEGEPLPSSMAAVAAVQADAVIRTQGDKPFVVAGHSAGALMAYALATELLDRGHPPRGVVLIDVYPPGHQDAMNAWLEELTATLFDRETVRMDDTRLTALGAYDRLTGQWRPRETGLPTLLVSAGEPMGPWPDDSWKPTWPFEHDTVAVPGDHFTMVQEHADAIARHIDAWLGGGNSHHHHHH | all four acyl-ACP adducts were observed to be substrates for (5)M3+TE | all four acyl-ACP adducts were observed to be substrates for (5)M3+TE | all four acyl-ACP adducts were observed to be substrates for (5)M3+TE | all four acyl-ACP adducts were observed to be substrates for (5)M3+TE | – | – | – | – |
